From paper doi:10.1101/2020.07.02.184341, “Contact with the CsrA core is required for allosteric inhibition by FliW in Bacillus subtilis” (bioRxiv, 2020)

T1: purified untagged wild-type FliW (FliW^WT) (B. subtilis, UniProt P96503 1-143)
T1 construct: FliW, Bacillus subtilis; also called His6-SUMO-FliW^WT before cleavage; source: E. coli Rosetta gami, purified (Ni-NTA, size exclusion chromatography, SUMO tag cleaved)
T1 sequence (looked up): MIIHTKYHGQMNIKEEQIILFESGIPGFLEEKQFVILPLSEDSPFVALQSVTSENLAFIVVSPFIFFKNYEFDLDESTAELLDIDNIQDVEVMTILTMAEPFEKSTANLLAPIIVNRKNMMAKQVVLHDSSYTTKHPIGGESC

T2: purified FliW^K123E (B. subtilis, UniProt P96503 1-143, K123E)
T2 construct: FliW, Bacillus subtilis, with K123E; cloned in pTB146 (SapI/XhoI); source: E. coli Rosetta gami, purified (Ni-NTA, size exclusion chromatography, SUMO tag cleaved)
T2 sequence (looked up): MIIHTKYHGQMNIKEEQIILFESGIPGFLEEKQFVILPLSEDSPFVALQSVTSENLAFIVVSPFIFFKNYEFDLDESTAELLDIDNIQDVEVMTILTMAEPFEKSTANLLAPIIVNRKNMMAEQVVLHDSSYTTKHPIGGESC


What was measured:
[1] = biological target: T1, purified untagged wild-type FliW …; test: pull-down; 0.25 uM GST-CsrA (WT or D41K) on Glutathione-Sepharose beads; FliW at 0.125, 0.167, 0.25, 0.333 and 0.5 uM, 2 h at 4 C in T(0.1) buffer (25 mM Tris-HCl pH 8.0, 20% glycerol, 100 mM NaCl, 1 mM DTT, 1 mg/mL BSA); 4 washes; supernatant and pellet on Western blots; settings: both partners purified
[2] = biological target: T2, purified FliW^K123E; test: as above; settings: both partners purified

binding result [1]	binding result [2]	Binder
binds	–	GST tagged CsrA (GST-CsrA^WT) (natural protein, B. subtilis, UniProt P33911 1-74, looked up, CsrA, Bacillus subtilis, fused to GST; The D41K form was cloned in pGEX-2TK; source: E. coli Rosetta gami, purified (Glutathione-Sepharose, size exclusion chromatography)) MLVLSRKINEAIQIGADIEVKVIAVEGDQVKLGIDAPKHIDIHRKEIYLTIQEENNRAAALSSDVISALSSQKK
–	binds	GST-CsrA^D41K (natural protein, B. subtilis, UniProt P33911 1-74, looked up, CsrA, Bacillus subtilis, with D41K, translational fusion to the GST tag in pGEX-2TK (BamHI/EcoRI); source: E. coli Rosetta gami, purified (Glutathione-Sepharose, size exclusion chromatography)) MLVLSRKINEAIQIGADIEVKVIAVEGDQVKLGIDAPKHIKIHRKEIYLTIQEENNRAAALSSDVISALSSQKK
